Assay results: US20230203146A1 (Boehringer Ingelheim, published 2023)
Where two headings read alike, the source gives them in different places. One block for each binder: values may come before it.

Legend:
[1] = target: T1, N-terminally FLAG-tagged mouse Ang2 (HEK293T conditioned medium) (mouse, UniProt O35608 19-496); test: competition ELISA, FLAG-mAng2 on coated mTie2-Fc
T1 construct: may be a nucleotide entry; also called mAng2; FLAG-mAng2
T1 sequence: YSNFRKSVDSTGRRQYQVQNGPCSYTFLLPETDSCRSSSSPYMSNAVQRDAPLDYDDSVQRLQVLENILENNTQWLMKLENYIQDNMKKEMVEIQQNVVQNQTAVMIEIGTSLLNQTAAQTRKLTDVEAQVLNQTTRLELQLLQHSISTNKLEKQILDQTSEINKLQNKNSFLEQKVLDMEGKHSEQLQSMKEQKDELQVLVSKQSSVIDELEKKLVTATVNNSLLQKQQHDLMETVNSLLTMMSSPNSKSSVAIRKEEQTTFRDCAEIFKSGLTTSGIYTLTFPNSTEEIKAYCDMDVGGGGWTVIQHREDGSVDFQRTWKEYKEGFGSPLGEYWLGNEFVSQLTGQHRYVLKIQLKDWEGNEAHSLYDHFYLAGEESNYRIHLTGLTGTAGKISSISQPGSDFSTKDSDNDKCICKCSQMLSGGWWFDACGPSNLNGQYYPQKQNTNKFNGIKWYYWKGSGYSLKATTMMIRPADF
Method: (§1) In brief, 2 μg/mL of recombinant mouse Tie2-Fc or cyno Tie2-Fc is coated overnight at 4° C. in a 96-well MaxiSorp plate (Nunc, Wiesbaden, Germany). Coated wells are blocked with a 1% casein solution.

[2] = target: T2, N-terminally FLAG-tagged cynomolgus Ang2 (HEK293T conditioned medium) (cynomolgus, UniProt O15123 19-496 (human entry), limits assumed); test: competition ELISA, FLAG-cAng2 on coated cTie2-Fc
T2 construct: may be a nucleotide entry; also called cAng2; FLAG-cAng2
T2 chain: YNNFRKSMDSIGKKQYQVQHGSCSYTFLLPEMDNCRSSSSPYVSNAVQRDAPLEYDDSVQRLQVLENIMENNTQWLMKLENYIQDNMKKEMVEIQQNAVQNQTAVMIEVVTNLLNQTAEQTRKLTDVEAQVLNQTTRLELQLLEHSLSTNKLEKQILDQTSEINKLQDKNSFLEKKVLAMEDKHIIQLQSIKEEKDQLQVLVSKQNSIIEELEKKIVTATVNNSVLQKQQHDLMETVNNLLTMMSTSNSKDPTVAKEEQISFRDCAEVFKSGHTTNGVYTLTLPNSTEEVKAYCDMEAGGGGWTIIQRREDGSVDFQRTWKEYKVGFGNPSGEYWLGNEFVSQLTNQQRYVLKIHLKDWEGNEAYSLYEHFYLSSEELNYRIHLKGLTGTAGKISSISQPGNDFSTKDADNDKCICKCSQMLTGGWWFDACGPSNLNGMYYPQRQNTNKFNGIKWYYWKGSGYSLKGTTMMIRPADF
Method: as §1

[3] = target: T1, N-terminally FLAG-tagged mouse Ang2 …; test: competition ELISA, FLAG-mAng2 on coated mTie2-Fc; remark: listed apart in the source
Method: as §1

[4] = target: T3, recombinant cynomolgus Ang2-FLD (cynomolgus); test: SPR (Biacore T100), binder on CM5 chip, Ang2-FLD as analyte
T3 construct: domain: FLD; also called cyno Ang2-FLD
Method: (§2) In brief, VHH and benchmark compounds are immobilized on a CM5 chip via amine coupling. […] Ang2-FLD species are allowed to associate for 2 min and to dissociate for 20 min at a flow rate of 45 μL/min. In between injections, the surfaces are regenerated with a 10 sec pulse of 25 mM NaOH and 60 sec stabilization period. Association/dissociation data are evaluated by fitting a 1:1 interaction model (Langmuir binding). The affinity constant KD is calculated from resulting association and dissociation rate constants kₐ and kd and are depicted in Table 8.

[5] = target: T4, recombinant human Ang2-FLD (human, UniProt O15123 275-496, limits assumed); test: as above
T4 construct: domain: FLD; not used
T4 sequence (looked up): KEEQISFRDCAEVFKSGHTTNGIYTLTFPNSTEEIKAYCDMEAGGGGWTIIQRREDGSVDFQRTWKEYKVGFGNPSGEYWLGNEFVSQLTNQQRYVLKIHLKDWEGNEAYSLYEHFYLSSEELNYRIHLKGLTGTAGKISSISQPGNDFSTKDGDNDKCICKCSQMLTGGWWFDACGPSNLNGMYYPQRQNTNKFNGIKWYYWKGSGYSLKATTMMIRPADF
Method: as §2

[6] = target: T5, recombinant mouse Ang2-FLD (mouse, UniProt O35608 275-496, limits assumed); test: as above
T5 construct: domain: FLD
T5 sequence (looked up): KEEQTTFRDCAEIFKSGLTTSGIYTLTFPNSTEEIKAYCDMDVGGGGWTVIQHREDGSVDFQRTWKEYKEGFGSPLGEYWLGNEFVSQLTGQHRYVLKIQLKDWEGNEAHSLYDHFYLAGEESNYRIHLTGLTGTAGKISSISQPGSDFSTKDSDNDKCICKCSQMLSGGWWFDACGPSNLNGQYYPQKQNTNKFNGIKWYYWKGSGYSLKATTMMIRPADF
Method: as §2

[7] = target: T6, FLAG-tagged recombinant human Ang1 (Alexis Biochemicals) (human, UniProt Q15389 20-498, limits assumed); test: ratio of IC50 in hAng1/hTie2 ELISA to IC50 in hAng2/hTie2 ELISA
T6 construct: Bought reagent; also called hAng1; FLAG-hAng1
T6 sequence (looked up): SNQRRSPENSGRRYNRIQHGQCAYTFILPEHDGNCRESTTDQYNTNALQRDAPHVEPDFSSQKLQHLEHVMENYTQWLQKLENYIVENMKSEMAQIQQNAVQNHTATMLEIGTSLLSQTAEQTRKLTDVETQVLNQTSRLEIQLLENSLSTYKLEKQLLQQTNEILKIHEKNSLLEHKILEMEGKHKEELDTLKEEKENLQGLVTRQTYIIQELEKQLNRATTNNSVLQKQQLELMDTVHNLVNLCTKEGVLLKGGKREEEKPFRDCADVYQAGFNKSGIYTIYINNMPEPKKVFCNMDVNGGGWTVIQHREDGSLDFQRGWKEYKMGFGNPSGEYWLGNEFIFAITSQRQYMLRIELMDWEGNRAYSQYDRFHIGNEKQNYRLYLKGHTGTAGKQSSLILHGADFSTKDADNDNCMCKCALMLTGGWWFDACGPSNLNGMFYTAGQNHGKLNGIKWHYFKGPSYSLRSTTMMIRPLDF
Method: In brief, 2 μg/mL of Tie2/Fc chimera (R&D Systems, Minneapolis, Minn., USA) is coated in a 96-well MaxiSorp plate (Nunc, Wiesbaden, Germany).
In brief, 2 μg/mL of recombinant human Tie2-Fc (R&D Systems, Minneapolis, Minn., USA) is coated overnight at 4° C. in a 96-well MaxiSorp plate (Nunc, Wiesbaden, Germany). Coated wells are blocked with a 1% casein solution.

[8] = target: T7, recombinant mouse Ang2-FLD (mouse, UniProt O35608 275-496, limits assumed); test: SPR (Biacore T100), VHH immobilized, Ang2-FLD injected
T7 construct: domain: FLD
T7 sequence (looked up): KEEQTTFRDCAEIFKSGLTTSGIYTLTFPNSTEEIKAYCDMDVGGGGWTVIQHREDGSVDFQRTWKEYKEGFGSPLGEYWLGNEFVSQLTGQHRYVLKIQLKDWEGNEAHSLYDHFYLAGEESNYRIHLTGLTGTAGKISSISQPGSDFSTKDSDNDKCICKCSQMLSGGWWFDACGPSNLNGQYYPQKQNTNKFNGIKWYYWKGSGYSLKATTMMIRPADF
Method: as §2

recombinant rat Ang2-FLD = target: T8, recombinant rat Ang2-FLD (rat, UniProt O35462 275-496, limits assumed); test: as above
T8 construct: domain: FLD
T8 sequence (looked up): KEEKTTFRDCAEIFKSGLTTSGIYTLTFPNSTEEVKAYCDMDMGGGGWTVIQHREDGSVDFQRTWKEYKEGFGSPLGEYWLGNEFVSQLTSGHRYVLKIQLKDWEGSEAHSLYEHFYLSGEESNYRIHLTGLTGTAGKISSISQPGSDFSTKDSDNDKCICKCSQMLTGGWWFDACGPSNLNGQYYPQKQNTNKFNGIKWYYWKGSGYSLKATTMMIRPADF
Method: as §2

[9] = target: T9, recombinant human Ang2-FLD (human, UniProt O15123 275-496, limits assumed); test: as above
T9 construct: domain: FLD
T9 sequence (looked up): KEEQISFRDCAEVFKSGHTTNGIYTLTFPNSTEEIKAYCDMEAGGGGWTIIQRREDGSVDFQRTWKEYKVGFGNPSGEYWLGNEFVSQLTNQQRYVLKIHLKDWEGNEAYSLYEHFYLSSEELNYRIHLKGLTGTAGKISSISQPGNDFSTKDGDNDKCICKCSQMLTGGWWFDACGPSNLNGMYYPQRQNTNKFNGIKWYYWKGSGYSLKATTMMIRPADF
Method: as §2

[10] = target: T10, recombinant cynomolgus Ang2-FLD (cynomolgus, UniProt A0A2K5VNX6 275-496); test: as above
T10 construct: domain: FLD; also called cyno Ang2-FLD
T10 sequence: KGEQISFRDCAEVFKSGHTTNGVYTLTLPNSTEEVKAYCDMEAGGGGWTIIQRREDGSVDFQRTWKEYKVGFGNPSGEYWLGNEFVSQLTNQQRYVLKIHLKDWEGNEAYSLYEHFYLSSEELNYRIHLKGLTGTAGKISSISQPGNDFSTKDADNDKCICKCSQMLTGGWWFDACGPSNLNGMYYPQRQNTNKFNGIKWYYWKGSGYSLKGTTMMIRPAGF
Method: as §2

FLAG-tagged mouse Ang2 = target: T11, FLAG-tagged mouse Ang2 (mouse, UniProt O35608 19-496); test: competition ELISA: FLAG-mAng2 binding to coated mTie2-Fc
T11 construct: N-terminally FLAG-tagged, conditioned medium of HEK293T cells; also called mAng2; FLAG-mAng2
T11 sequence: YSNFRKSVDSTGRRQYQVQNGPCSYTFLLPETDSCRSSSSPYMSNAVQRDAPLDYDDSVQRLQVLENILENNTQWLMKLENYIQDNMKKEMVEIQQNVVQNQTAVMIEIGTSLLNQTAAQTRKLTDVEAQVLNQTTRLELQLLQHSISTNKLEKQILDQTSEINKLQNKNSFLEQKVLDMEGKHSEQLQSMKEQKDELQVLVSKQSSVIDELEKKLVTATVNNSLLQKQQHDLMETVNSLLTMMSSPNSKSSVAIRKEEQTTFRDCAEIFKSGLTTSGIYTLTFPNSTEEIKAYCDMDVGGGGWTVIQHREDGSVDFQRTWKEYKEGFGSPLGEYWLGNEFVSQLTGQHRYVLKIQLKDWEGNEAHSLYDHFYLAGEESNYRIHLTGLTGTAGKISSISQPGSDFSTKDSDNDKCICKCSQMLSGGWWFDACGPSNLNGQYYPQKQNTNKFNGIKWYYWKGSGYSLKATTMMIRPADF
Method: as §1

[11] = target: T12, FLAG-tagged cynomolgus Ang2 (cynomolgus, UniProt O15123 19-496 (human entry), limits assumed); test: competition ELISA: FLAG-cAng2 binding to coated cTie2-Fc
T12 construct: N-terminally FLAG-tagged, conditioned medium of HEK293T cells; also called cAng2; FLAG-cAng2
T12 chain: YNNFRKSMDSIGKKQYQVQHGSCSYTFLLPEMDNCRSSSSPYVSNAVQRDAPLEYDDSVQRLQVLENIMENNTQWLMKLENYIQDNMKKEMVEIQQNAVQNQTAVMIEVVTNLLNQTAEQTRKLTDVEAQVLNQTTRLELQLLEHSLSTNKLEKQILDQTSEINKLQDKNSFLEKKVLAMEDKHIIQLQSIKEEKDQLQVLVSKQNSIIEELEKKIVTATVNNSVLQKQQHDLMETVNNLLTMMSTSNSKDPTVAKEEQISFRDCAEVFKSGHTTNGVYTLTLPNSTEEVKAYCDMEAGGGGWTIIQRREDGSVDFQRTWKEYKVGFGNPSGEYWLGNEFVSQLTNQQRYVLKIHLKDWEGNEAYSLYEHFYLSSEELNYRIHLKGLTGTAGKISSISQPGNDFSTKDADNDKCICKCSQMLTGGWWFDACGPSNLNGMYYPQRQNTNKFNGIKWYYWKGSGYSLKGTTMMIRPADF
Method: as §1

IC50 [1]: 6.3 nM
IC50 [2]: 16.4 nM
IC50 [3]: 10 nM
Kd [4]: 1.4 nM
koff [4]: 0.014 s⁻¹
kon [4]: 9.9e+06 M⁻¹ s⁻¹
Kd [5]: 2 nM
koff [5]: 0.015 s⁻¹
kon [5]: 7.7e+06 M⁻¹ s⁻¹
Kd [6]: 4.6 nM
koff [6]: 0.015 s⁻¹
kon [6]: 3.3e+06 M⁻¹ s⁻¹
hAng1/hAng2 ratio [7]: > 10800
B1: VHH 1D01 (VHH)
VHH: EVQLVESGGGLVQAGGSLRLSCAASGFTFDDYALGWFRQAAGKEREGVSCIRCSDGSTYYADSVKGRFTISSDNAKNTVYLQMNSLKPEDTAVYYCAASIVPRSKLEPYEYDAWGQGTQVTVSS
notes: also called 001D01; not shown: C-terminal c-myc tag and His6 tag

Kd [8]: 7.5 nM
koff [8]: 0.025 s⁻¹
kon [8]: 3.3e+06 M⁻¹ s⁻¹
Kd (recombinant rat Ang2-FLD): 42 nM
koff (recombinant rat Ang2-FLD): 0.049 s⁻¹
kon (recombinant rat Ang2-FLD): 1.2e+06 M⁻¹ s⁻¹
Kd [9]: 6.6 nM
koff [9]: 0.027 s⁻¹
kon [9]: 4e+06 M⁻¹ s⁻¹
Kd [10]: 2.3 nM
koff [10]: 0.025 s⁻¹
kon [10]: 1.1e+07 M⁻¹ s⁻¹
IC50 (FLAG-tagged mouse Ang2): 27 nM
IC50 [11]: 37 nM
B2: VHH 00921 (VHH, not shown: small tags and cut ends)
VHH: EVQLVESGGGLVQPGGSLRLSCAASGFTFDDYALGWFRQAPGKEREGVSCIRCSGGSTYYADSVKGRFTISSDNSKNTVYLQMNSLRPEDTAVYYCAASIVPRSKLEPYEYDAWGQGTLVTVSS
